Measured values taken from publication PMC2173958.

B1: Cdc31p (natural protein)
chain: MSKNRSSLQSGPLNSELLEEQKQEIYEAFSLFDMNNDGFLDYHELKVAMKALGFELPKREILDLIDEYDSEGRHLMKYDDFYIVMGEKILKRDPLDEIKRAFQLFDDDHTGKISIKNLRRVAKELGETLTDEELRAMIEEFDLDGDGEINENEFIAICTDS

Key:
[1] = molecular target: GST fusion 2b of Sfi1p (246–281) (S. cerevisiae) (UniProt Q12369); test: pull-down
[2] = molecular target: GST fusion 2c of Sfi1p (279–386) (S. cerevisiae) (UniProt Q12369); test: pull-down
[3] = molecular target: GST fusion 3a of Sfi1p (451–474) (S. cerevisiae) (UniProt Q12369); test: pull-down
[4] = molecular target: GST fusion 4a of Sfi1p (643–677) (S. cerevisiae) (UniProt Q12369); test: pull-down
[5] = molecular target: GST fusion 4b of Sfi1p (676–710) (S. cerevisiae) (UniProt Q12369); test: pull-down
[6] = molecular target: Sfi1p-prA (S. cerevisiae) (UniProt Q12369); test: affinity purification with mass spectrometry

UniProt Q12369, sequence (Q12369 whole entry, the tested form may be a part): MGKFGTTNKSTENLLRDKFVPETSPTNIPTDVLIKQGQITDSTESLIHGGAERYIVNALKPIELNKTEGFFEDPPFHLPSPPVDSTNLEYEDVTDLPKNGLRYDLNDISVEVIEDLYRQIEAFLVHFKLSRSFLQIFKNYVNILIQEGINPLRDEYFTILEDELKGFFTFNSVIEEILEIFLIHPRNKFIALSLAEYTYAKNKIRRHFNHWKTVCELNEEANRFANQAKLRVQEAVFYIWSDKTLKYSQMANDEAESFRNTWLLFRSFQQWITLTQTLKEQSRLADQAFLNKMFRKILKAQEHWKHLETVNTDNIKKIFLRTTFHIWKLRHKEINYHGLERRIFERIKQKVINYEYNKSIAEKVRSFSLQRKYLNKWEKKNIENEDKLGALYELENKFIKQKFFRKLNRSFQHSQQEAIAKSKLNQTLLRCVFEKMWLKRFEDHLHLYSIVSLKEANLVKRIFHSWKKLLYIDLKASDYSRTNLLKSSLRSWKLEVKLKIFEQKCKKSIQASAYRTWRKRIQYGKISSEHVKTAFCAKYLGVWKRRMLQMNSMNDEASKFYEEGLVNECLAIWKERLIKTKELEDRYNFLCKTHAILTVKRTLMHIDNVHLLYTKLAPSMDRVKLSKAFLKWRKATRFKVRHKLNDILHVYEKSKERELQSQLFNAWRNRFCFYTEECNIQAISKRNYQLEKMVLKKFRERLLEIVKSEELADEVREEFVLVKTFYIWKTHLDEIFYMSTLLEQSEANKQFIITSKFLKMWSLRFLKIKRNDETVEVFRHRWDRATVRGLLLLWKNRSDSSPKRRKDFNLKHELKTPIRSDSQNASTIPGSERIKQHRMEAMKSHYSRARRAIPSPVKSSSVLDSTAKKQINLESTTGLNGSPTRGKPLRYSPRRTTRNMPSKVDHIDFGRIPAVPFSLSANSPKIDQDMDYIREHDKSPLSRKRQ

| Molecule | stoichiometry N [1] | molar ratio of Cdc31p to fusion (gel scan, not at saturation) [2] | stoichiometry N [3] | stoichiometry N [4] | stoichiometry N [5] | molar ratio of Cdc31p to Sfi1p-prA (inspection of Coomassie-stained bands) [6] |
| --- | --- | --- | --- | --- | --- | --- |
| recombinant Cdc31p (from UniProt P06704 2-161) (natural protein) | < 1.1 | 1.1 | < 1.1 | < 1.1 | < 1.1 | – |
| B1 | – | – | – | – | – | > 1 |
